Laboratory results as given in publication PMC9896810, “Crk proteins activate the Rap1 guanine nucleotide exchange factor C3G by segregated adaptor-dependent and -independent mechanisms” (Cell Communication and Signaling : CCS, 2023).

T1: C3G-AAAP-Y554H (human, UniProt Q13905-1 4-1077, P283A | P284A | L286 | P287 | P289A | P453A | P454A | L456A | P457A | K459A | …)
T1 construct: human C3G isoform a, residues 4-1077; source: E. coli BL21 (DE3), purified (IMAC, TEV digestion, reversed IMAC, SEC); not shown: His, N-terminal, cleaved; Halo, N-terminal, cleaved
T1 sequence (looked up): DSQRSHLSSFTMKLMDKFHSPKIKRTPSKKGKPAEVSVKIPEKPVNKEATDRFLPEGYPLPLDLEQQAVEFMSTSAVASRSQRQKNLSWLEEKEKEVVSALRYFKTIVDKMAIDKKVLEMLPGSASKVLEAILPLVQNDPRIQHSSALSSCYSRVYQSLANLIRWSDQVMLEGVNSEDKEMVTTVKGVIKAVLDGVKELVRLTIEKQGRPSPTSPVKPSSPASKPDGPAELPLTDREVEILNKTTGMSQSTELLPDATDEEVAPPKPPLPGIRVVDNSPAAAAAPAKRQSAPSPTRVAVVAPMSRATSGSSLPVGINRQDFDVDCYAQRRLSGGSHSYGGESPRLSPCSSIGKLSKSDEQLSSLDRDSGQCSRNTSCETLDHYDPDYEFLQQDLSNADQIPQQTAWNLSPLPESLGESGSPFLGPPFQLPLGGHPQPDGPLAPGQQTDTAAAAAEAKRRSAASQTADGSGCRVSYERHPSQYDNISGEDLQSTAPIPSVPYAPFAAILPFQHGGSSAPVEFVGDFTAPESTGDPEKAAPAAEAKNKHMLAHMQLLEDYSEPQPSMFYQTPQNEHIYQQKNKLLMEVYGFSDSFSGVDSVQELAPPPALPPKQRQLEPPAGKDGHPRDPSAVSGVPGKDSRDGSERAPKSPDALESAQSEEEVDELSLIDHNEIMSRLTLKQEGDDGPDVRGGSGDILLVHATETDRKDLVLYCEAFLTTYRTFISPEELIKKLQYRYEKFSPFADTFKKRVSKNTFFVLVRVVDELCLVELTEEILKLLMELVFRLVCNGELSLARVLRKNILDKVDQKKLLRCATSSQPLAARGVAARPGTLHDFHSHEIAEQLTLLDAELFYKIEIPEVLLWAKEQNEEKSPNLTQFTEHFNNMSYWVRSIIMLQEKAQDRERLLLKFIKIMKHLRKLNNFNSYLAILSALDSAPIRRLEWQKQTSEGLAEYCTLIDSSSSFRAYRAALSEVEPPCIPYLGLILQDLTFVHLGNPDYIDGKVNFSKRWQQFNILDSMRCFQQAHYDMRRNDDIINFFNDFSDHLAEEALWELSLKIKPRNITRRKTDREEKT

T2: C3G-APAA (human, UniProt Q13905-1 4-1077, P283A | P284A | L286 | P287 | P289A | P540A | P541A | L543A | P544A | K546A | …)
T2 construct: human C3G isoform a, residues 4-1077; only P2 kept, P1, P3 and P4 mutated to Ala; source: E. coli BL21 (DE3), purified (IMAC, TEV digestion, reversed IMAC, SEC); not shown: His, N-terminal, cleaved; Halo, N-terminal, cleaved
T2 sequence (looked up): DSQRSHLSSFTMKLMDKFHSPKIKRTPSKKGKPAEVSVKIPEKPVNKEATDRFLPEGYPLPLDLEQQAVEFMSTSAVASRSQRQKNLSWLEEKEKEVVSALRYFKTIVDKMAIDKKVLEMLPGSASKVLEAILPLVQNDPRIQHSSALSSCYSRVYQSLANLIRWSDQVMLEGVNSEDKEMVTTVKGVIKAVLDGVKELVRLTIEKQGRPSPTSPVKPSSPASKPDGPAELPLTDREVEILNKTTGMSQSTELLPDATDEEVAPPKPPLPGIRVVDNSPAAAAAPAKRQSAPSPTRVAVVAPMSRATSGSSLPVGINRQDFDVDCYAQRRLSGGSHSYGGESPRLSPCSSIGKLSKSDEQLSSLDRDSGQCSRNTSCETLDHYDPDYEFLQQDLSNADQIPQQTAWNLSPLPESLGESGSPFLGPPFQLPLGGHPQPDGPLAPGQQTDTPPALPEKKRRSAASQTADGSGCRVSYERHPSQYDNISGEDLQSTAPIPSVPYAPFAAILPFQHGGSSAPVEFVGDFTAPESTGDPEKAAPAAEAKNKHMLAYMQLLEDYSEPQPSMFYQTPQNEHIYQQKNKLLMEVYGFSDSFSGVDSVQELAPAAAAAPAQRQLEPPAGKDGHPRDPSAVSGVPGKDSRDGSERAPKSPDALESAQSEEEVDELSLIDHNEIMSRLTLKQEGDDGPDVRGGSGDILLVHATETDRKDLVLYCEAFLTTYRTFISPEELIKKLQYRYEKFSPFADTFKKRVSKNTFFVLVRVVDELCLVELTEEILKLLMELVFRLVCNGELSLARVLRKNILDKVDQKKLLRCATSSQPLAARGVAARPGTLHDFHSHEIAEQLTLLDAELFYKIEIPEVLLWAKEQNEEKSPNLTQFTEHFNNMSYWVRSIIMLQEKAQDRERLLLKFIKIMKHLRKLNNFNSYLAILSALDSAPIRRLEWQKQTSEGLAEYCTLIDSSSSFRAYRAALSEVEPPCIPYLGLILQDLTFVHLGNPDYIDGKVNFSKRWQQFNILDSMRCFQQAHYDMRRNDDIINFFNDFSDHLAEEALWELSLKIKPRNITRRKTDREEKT


Experiments:
[1] = molecular target: T1, C3G-AAAP-Y554H; assay: ITC; single-PRM mutant of C3G in the cell titrated with CrkL or CrkL-SH3N, 25 °C, 300 mM NaCl, pH 7.5; SEDPHAT, 1:1 heteroassociation model; N is the competent fraction of C3G; conditions: both partners purified
[2] = molecular target: T2, C3G-APAA; assay: as above; conditions: both partners purified

Kd [1] | stoichiometry N [1] | Kd [2] | stoichiometry N [2] | Binder
2400 nM | 0.57 |  |  | CrkL-SH3N (domain or fragment, human, UniProt P46109 125-182, looked up, human CrkL, SH3N domain, residues 125-182, in pETEV15b; source: E. coli BL21 (DE3), purified (IMAC, TEV digestion, SEC); not shown: His, N-terminal, cleaved) LEYVRTLYDFPGNDAEDLPFKKGEILVIIEKPEEQWWSARNKDGRVGMIPVPYVEKLV
 |  | 1200 nM | 0.78 | CrkL (full-length) (natural protein, human, UniProt P46109 1-303, looked up, human CrkL, residues 1-303, in pETEV15b; also called Crk-like protein; source: E. coli BL21 (DE3), purified (IMAC, TEV digestion, SEC); not shown: His, N-terminal, cleaved) MSSARFDSSDRSAWYMGPVSRQEAQTRLQGQRHGMFLVRDSSTCPGDYVLSVSENSRVSHYIINSLPNRRFKIGDQEFDHLPALLEFYKIHYLDTTTLIEPAPRYPSPPMGSVSAPNLPTAEDNLEYVRTLYDFPGNDAEDLPFKKGEILVIIEKPEEQWWSARNKDGRVGMIPVPYVEKLVRSSPHGKHGNRNSNSYGIPEPAHAYAQPQTTTPLPAVSGSPGAAITPLPSTQNGPVFAKAIQKRVPCAYDKTALALEVGDIVKVTRMNINGQWEGEVNGRKGLFPFTHVKIFDPQNPDENE
